The text below walks through data of patent US20130347134A1, “TRANSGENIC VON WILLEBRAND FACTOR ANIMALS AND USES THEREOF” (priority 2012, published 2013).

For experiment [1], the target named is human platelet glycoprotein Ib alpha (GPIb α) on human platelets (human) (UniProt P07359). Put plainly: cell-based or functional assay.
Experiment [2] addresses murine platelet glycoprotein Ib alpha (GPIb α) on mouse platelets (mouse) (UniProt O35930). The experiment is described as follows: cell-based or functional assay.
In experiment [3] the target is human platelet glycoprotein Ib alpha (GPIb α) on human platelets (human) (UniProt P07359). The experiment is described as follows: translocation of human platelets on immobilized plasma VWF in flow.
The target is the same in experiment [4]. Put plainly: human whole blood over immobilized protein, parallel-plate flow chamber, 1600 s^-1.
Experiment [5] shares this target. The experiment is described as follows: blocking in a parallel-plate flow chamber: human whole blood treated with mAb AP-1 perfused over surface-immobilized murine plasma VWF R1326H (the blocked ligand), shear rate 1,600 s^-1; about 4,600 without antibody.
For experiment [6] the target is unchanged. The experiment is described as follows: blocking in a parallel-plate flow chamber: human whole blood treated with mAb 6D1 perfused over surface-immobilized murine plasma VWF R1326H (the blocked ligand), shear rate 1,600 s^-1; about 4,600 without antibody.
In experiment [7] the target is human platelet integrin αIIb β3 on human platelets (human) (UniProt P08514). Put plainly: cell-based or functional assay.

murine platelet glycoprotein Ib alpha (GPIb α) on mouse platelets (mouse), sequence (O35930 17-734): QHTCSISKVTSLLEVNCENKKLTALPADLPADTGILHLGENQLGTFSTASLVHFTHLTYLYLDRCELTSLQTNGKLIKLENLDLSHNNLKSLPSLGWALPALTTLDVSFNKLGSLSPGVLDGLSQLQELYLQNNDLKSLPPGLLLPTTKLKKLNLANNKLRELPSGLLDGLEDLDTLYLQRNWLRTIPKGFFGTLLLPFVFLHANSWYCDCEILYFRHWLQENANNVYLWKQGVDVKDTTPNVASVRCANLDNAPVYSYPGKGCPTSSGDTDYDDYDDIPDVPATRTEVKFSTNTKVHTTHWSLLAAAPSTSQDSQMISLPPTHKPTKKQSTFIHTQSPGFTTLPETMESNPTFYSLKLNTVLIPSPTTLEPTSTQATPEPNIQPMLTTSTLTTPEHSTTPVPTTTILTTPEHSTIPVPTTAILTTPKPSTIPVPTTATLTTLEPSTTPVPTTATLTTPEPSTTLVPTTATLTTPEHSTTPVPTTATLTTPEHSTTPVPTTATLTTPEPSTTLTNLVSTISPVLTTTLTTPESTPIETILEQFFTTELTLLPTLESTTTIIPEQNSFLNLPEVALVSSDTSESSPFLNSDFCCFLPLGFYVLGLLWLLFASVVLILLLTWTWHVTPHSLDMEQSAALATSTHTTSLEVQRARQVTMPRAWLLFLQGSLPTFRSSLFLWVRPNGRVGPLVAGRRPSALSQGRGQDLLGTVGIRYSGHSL

In experiment [1], “murine plasma VWF containing the 1326R>H mutation (VWF^1326R>H), Q8CIZ8 764-2813” registered an average thrombus size, human platelets in homozygous VWF^1326R>H mice of 8950 µm^2; a share of human cells in thrombi, laser injury in homozygous VWF^1326R>H mice of 91.7%; a tail bleeding time of VWF^1326R>H mice infused with human platelets of 182 s. In experiment [2], this substance displayed an increase in tail bleeding time, heterozygous animals versus WT of 1.9 fold; a reduction in thrombi formed on collagen, whole blood of knock-in mice, 1600 s^-1 of 70%; a reduction in thrombus formation on surface-immobilized collagen, whole blood of homozygous mutant mice (FIG. 26) of 80%. For the same substance, the translocation velocity of human platelets in experiment [3] stood at 3.5 µm/sec.
“murine plasma von Willebrand factor (VWF), wild type, Q8CIZ8 764-2813” yielded a share of human platelets in total thrombus area, WT mice in experiment [1] of 5.7%. Also, in experiment [2], the ristocetin-induced platelet aggregation (RIPA), murine PRP, 2.5 mg/ml ristocetin came out at 30%. Besides, the platelet deposition relative to same-species control in experiment [4] amounted to 10%.
On to GPIb α function-blocking antibody AP-1, for which the human platelet thrombus size in VWF^1326R>H mice after pre-treatment with the mAb in experiment [1] came out at 198 µm^2. Further, the Human platelet accumulation/mm2 in experiment [5] is 0 /mm2.
In the case of “function-blocking monoclonal antibody 6D1 (anti-human GPIb α)”, the human platelet thrombus size in VWF^1326R>H mice after pre-treatment with the mAb in experiment [1] worked out at 265 µm^2. The Human platelet accumulation/mm2 in experiment [6] was 0 /mm2.
As to “function-blocking monoclonal antibody 7E3 (anti-human αIIb β3)”, the human platelet thrombus size in VWF^1326R>H mice after pre-treatment with the mAb in experiment [7] is 529 µm^2.
